Values quoted from earlier work, collected in PMC6929323.

Target: UFD1L-NPLOC4 (Homo sapiens) (UniProt Q92890)
Experiment: ITC

UniProt Q92890, sequence (Q92890 whole entry, chain 1 of 2): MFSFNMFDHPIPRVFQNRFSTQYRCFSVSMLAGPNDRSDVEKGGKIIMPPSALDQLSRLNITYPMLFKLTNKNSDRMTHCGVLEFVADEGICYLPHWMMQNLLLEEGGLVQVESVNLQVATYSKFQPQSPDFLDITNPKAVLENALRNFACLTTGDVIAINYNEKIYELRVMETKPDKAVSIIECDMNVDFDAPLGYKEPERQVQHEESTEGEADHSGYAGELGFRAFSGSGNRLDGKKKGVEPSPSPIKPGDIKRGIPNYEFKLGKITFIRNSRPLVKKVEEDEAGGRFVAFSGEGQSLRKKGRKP
UniProt Q92890, sequence (Q8TAT6 2-608, chain 2 of 2, further chain): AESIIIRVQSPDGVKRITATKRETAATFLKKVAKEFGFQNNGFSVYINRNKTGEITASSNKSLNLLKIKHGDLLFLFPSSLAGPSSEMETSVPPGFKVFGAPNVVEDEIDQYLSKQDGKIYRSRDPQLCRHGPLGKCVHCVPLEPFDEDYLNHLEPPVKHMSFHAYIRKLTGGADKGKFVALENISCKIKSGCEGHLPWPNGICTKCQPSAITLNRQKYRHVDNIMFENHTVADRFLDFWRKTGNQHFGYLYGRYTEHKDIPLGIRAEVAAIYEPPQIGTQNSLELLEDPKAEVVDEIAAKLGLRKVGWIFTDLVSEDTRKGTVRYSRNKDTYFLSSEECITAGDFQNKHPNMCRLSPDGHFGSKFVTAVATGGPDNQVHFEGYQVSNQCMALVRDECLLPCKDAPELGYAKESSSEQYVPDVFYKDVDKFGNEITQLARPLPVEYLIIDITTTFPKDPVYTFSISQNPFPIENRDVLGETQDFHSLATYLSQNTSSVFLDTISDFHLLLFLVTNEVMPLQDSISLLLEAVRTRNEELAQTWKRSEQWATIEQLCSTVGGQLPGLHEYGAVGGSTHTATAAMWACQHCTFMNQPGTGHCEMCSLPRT

In the case of p97 (from UniProt P55072), the Kd is given as 1700 nM.
